Reference: US20130122013A1 (Eli Lilly, published 2013)
Residue numbers refer to the chain shown, from its start.

T1: human ferroportin 1 (human, UniProt Q9NP59 1-571)
T1 sequence: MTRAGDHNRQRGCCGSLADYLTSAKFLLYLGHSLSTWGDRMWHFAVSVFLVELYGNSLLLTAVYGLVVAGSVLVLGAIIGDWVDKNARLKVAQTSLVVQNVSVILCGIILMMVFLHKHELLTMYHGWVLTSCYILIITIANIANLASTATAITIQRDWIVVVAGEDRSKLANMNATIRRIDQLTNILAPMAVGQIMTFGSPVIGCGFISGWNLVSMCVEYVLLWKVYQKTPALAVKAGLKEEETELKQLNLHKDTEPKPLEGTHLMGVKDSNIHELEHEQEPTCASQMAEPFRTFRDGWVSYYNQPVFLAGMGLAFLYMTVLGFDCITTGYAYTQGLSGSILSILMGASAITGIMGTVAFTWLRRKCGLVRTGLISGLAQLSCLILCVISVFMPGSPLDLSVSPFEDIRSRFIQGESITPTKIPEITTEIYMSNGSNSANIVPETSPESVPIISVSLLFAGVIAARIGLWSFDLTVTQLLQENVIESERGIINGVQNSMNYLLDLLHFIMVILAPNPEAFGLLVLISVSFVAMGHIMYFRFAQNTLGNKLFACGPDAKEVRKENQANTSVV

T2: human FPN1 C-terminally fused with GFP (human, UniProt Q9NP59 1-571, GFP reporter fused to the C-terminus ("FPN1 is C-terminally fused with GFP"). It is left out because the patent gives no letters for it.)
T2 sequence: T1 sequence

T3: rat ferroportin (rat, UniProt Q923U9 1-570, limits assumed)
T3 sequence (looked up): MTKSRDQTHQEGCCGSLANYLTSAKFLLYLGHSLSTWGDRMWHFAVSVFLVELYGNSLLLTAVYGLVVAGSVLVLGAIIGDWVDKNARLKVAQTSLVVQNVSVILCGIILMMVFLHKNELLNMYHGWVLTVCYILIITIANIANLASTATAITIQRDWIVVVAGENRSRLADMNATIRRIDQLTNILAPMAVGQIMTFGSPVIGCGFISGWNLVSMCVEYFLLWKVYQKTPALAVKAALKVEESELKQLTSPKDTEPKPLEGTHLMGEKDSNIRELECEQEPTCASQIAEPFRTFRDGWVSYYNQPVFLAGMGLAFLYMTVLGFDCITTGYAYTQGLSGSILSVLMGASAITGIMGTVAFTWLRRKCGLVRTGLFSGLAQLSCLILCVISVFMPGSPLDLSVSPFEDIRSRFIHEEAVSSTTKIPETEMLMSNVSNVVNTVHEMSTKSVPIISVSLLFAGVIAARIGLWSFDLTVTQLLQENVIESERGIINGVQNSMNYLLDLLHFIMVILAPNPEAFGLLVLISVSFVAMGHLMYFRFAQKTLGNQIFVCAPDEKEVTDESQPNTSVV

B1: Mab 4A10-3 (antibody, human IgG4 S228P, kappa, F234A L235A, V domains shown)
VH: QVQLVQSGAEVKKPGSSVKVSCKASGYAFTSFLIEWVRQAPGQGLEWMGTSNPRTGGRKYKEKFRGRVTITADKSTSTAYMELSSLRSEDTAVYYCAREFFDYWGQGTTVTVSS
VL: DIQMTQSPSSLSASVGDRVTITCRASKSISKYTAWYQQKPGKAPKLLIYAGSKLHWGVPSRFSGSGSGTDFTLTISSLQPEDFATYYCQQHNEYPYTFGGGTKVEIKR
B2: Mab Combi11 (antibody, human IgG4 S228P, kappa, F234A L235A, V domains shown)
VH: B1 VH with G57R, R58T, E62S
VL: B1 VL with L54R

Tests used:
human ferroportin 1 [1] = molecular target: T1, human ferroportin 1; assay: inhibition of binding of 30 nM biotinylated hepcidin to FPN/293 cells, ELISA of lysate; control antibody at 125 nM; mean
human ferroportin 1 [2] = molecular target: T1, human ferroportin 1; assay: inhibition of binding of 30 nM biotinylated hepcidin to FPN/293 cells, ELISA of lysate; control antibody at 500 nM; mean
human ferroportin 1 [3] = molecular target: T1, human ferroportin 1; assay: inhibition of binding of 30 nM biotinylated hepcidin to FPN/293 cells, ELISA of lysate; control antibody at 7.8 nM; mean
human ferroportin 1 [4] = molecular target: T1, human ferroportin 1; assay: inhibition of binding of 30 nM biotinylated hepcidin to FPN/293 cells, ELISA of lysate; control antibody at 2000 nM; mean
human ferroportin 1 [5] = molecular target: T1, human ferroportin 1; assay: inhibition of binding of 30 nM biotinylated hepcidin to FPN/293 cells, ELISA of lysate; control antibody at 31.25 nM; mean
human ferroportin 1 [6] = molecular target: T1, human ferroportin 1; assay: cell-based or functional assay
[7] = molecular target: T2, human FPN1 C-terminally fused with GFP; assay: inhibition of binding of 30 nM biotinylated hepcidin to FPN-GFP/293 cells, ELISA of lysate; control antibody at 1.2 uM; mean
[8] = molecular target: T2, human FPN1 C-terminally fused with GFP; assay: inhibition of binding of 30 nM biotinylated hepcidin to FPN-GFP/293 cells, ELISA of lysate; control antibody at 6.0 uM; mean
[9] = molecular target: T2, human FPN1 C-terminally fused with GFP; assay: inhibition of binding of 30 nM biotinylated hepcidin to FPN-GFP/293 cells, ELISA of lysate; control antibody at 0.24 uM; mean
[10] = molecular target: T2, human FPN1 C-terminally fused with GFP; assay: inhibition of binding of 30 nM biotinylated hepcidin to FPN-GFP/293 cells, ELISA of lysate; control antibody at 0.048 uM; mean
[11] = molecular target: T2, human FPN1 C-terminally fused with GFP; assay: cell-based or functional assay
rat ferroportin = molecular target: T3, rat ferroportin; assay: not described; told in the pharmacokinetics example
human ferroportin 1 [12] = molecular target: T1, human ferroportin 1; assay: inhibition of binding of 30 nM biotinylated hepcidin to FPN/293 cells, ELISA of lysate; antibody at 125 nM; mean
human ferroportin 1 [13] = molecular target: T1, human ferroportin 1; assay: inhibition of binding of 30 nM biotinylated hepcidin to FPN/293 cells, ELISA of lysate; antibody at 500 nM; mean
human ferroportin 1 [14] = molecular target: T1, human ferroportin 1; assay: inhibition of binding of 30 nM biotinylated hepcidin to FPN/293 cells, ELISA of lysate; antibody at 7.8 nM; mean
human ferroportin 1 [15] = molecular target: T1, human ferroportin 1; assay: inhibition of binding of 30 nM biotinylated hepcidin to FPN/293 cells, ELISA of lysate; antibody at 2000 nM; mean
human ferroportin 1 [16] = molecular target: T1, human ferroportin 1; assay: inhibition of binding of 30 nM biotinylated hepcidin to FPN/293 cells, ELISA of lysate; antibody at 31.25 nM; mean

Molecule	Absolute IC50 of inhibition of hepcidin-25-induced internalization and degradation of FPN1-GFP [11]	Relative IC50 of inhibition of hepcidin-25-induced internalization and degradation of FPN1-GFP [11]	Top % Inhibition of hepcidin-25-induced internalization and degradation of FPN1-GFP [11]	EC50 of inhibition of mature hepcidin induced increase in cellular ferritin, Caco-2 cells (human ferroportin 1 [6])	Percentage inhibition of mature hepcidin induced increase in cellular ferritin, Caco-2 cells, Mab at 2.22E-7 M (human ferroportin 1 [6])	Percentage inhibition of mature hepcidin induced increase in cellular ferritin, Caco-2 cells, Mab at 2.47E-8 M (human ferroportin 1 [6])	Percentage inhibition of mature hepcidin induced increase in cellular ferritin, Caco-2 cells, Mab at 2.7E-9 M (human ferroportin 1 [6])	Percentage inhibition of mature hepcidin induced increase in cellular ferritin, Caco-2 cells, Mab at 3.0E-10 M (human ferroportin 1 [6])	Percentage inhibition of mature hepcidin induced increase in cellular ferritin, Caco-2 cells, Mab at 6.67E-7 M (human ferroportin 1 [6])	Percentage inhibition of mature hepcidin induced increase in cellular ferritin, Caco-2 cells, Mab at 7.4E-8 M (human ferroportin 1 [6])	Percentage inhibition of mature hepcidin induced increase in cellular ferritin, Caco-2 cells, Mab at 8.0E-9 M (human ferroportin 1 [6])	Percentage inhibition of mature hepcidin induced increase in cellular ferritin, Caco-2 cells, Mab at 9.0E-10 M (human ferroportin 1 [6])	binding result (rat ferroportin)	% Inhibition (human ferroportin 1 [12])	% Inhibition (human ferroportin 1 [13])	% Inhibition (human ferroportin 1 [14])	% Inhibition (human ferroportin 1 [15])	% Inhibition (human ferroportin 1 [16])	further results
control IgG (antibody)																			% Inhibition (human ferroportin 1 [1]): 1.9%; % Inhibition (human ferroportin 1 [2]): -0.7%; % Inhibition (human ferroportin 1 [3]): 2.5%; % Inhibition (human ferroportin 1 [4]): -2.5%; % Inhibition (human ferroportin 1 [5]): 7.9%
Mouse IgG1, a negative control (antibody)																			% Inhibition of hepcidin-induced ferritin increase in Caco-2 cells, 6.25 µg/mL (human ferroportin 1 [6]): 0%; % Inhibition of hepcidin-induced ferritin increase in Caco-2 cells, 12.5 µg/mL (human ferroportin 1 [6]): 0%; % Inhibition of hepcidin-induced ferritin increase in Caco-2 cells, 25 µg/mL (human ferroportin 1 [6]): 7.2%; % Inhibition of hepcidin-induced ferritin increase in Caco-2 cells, 50 µg/mL (human ferroportin 1 [6]): 0%; % Inhibition of hepcidin-induced ferritin increase in Caco-2 cells, 100 µg/mL (human ferroportin 1 [6]): 3.5%; % Inhibition of hepcidin-induced ferritin increase in Caco-2 cells, 200 µg/mL (human ferroportin 1 [6]): 11.6%; Ferritin (ng)/protein (µg) in hepcidin-treated Caco-2 cells, 6.25 µg/mL (ng ferritin/µg protein) (human ferroportin 1 [6]): 10.4; Ferritin (ng)/protein (µg) in hepcidin-treated Caco-2 cells, 12.5 µg/mL (ng ferritin/µg protein) (human ferroportin 1 [6]): 10; Ferritin (ng)/protein (µg) in hepcidin-treated Caco-2 cells, 25 µg/mL (ng ferritin/µg protein) (human ferroportin 1 [6]): 9.6; Ferritin (ng)/protein (µg) in hepcidin-treated Caco-2 cells, 50 µg/mL (ng ferritin/µg protein) (human ferroportin 1 [6]): 10.1; Ferritin (ng)/protein (µg) in hepcidin-treated Caco-2 cells, 100 µg/mL (ng ferritin/µg protein) (human ferroportin 1 [6]): 9.78; Ferritin (ng)/protein (µg) in hepcidin-treated Caco-2 cells, 200 µg/mL (ng ferritin/µg protein) (human ferroportin 1 [6]): 9.4; % Inhibition [7]: 0.5%; % Inhibition [8]: -3.4%; % Inhibition [9]: -4%; % Inhibition [10]: -11%
B1	5.7 nM	4.7 nM	85.9%	37 nM	59.6%	36.2%	24.9%	12%	61.9%	45.6%	28%	19.5%	no binding	59.3%	84.9%	5.4%	95.3%	13.4%	
B2	3.8 nM	3.7 nM	92.6%	28 nM	69.3%	45.3%	34.8%	14.2%	75.2%	61.1%	31.6%	23.3%	no binding	88.4%	81.6%	18.7%	79.9%	32.1%	
